Values quoted from earlier work as cited in article PMC12672491.
Like-named read-outs stand apart in the source and are kept apart here.

Key:
[1] = target: importin-α3 (Homo sapiens) (UniProt O00629)
[2] = target: importin-α3 (Homo sapiens) (UniProt O00629); remark: listed apart in the source

Chain of UniProt O00629 (O00629 2-521): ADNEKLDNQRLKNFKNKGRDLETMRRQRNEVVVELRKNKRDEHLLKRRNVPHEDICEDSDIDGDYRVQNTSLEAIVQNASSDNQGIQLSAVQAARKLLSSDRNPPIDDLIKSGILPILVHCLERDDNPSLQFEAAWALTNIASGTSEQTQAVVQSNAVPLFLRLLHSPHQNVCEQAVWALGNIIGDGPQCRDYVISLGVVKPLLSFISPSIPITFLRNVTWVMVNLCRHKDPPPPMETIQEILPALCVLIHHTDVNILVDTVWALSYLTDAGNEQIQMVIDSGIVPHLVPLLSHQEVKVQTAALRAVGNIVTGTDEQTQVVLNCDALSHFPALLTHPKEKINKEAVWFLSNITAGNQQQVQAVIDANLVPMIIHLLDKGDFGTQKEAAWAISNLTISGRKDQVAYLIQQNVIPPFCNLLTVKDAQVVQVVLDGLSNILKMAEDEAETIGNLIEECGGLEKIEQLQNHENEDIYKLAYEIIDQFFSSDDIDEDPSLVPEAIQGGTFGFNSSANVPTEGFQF

In the case of Snail (from UniProt O95863), the Kd [1] is given as 2100 nM and the Kd [2] is given as 800 nM.
